Data taken from patent publication US20230136228A1 (LAMKAP BIO ALPHA, published 2023).

Legend:
[1] = target: T1, shed soluble CEACAM5 (sCEA) (human, UniProt P06731 35-685, limits assumed); assay: cell-based or functional assay
T1 sequence (looked up): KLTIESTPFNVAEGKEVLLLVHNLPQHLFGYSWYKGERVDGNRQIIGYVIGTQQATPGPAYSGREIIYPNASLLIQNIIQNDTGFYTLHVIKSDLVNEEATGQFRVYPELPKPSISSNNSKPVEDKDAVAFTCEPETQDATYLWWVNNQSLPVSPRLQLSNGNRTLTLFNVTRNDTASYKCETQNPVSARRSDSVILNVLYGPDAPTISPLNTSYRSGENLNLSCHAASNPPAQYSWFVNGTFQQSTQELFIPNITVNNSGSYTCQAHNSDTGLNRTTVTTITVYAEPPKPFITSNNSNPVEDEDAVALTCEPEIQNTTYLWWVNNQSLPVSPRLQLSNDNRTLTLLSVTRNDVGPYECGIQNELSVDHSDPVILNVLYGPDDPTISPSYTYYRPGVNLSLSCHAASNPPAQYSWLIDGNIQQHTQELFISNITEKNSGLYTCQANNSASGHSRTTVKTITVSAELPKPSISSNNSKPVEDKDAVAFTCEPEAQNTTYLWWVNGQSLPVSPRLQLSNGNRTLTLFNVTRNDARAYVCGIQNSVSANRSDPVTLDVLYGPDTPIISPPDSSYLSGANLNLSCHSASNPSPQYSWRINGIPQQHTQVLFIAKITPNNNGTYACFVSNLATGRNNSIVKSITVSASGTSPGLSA

human CEACAM6 = target: T2, human CEACAM6 (human, UniProt P40199 35-320); assay: flow cytometry, MFI on transfected PEAK cells divided by MFI on WT PEAK cells
T2 construct: whole, on cells; also called CD66c
T2 sequence (looked up): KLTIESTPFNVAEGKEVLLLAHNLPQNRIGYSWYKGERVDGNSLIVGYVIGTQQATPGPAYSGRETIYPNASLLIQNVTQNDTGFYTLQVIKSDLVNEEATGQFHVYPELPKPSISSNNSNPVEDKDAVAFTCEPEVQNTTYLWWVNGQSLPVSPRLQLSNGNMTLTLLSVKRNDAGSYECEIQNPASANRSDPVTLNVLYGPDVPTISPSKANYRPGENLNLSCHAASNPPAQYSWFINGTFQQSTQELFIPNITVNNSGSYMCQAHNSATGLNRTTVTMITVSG
Method: (§1) Similarly, vectors encoding the full-length version of cyno CEACAM 5 and 6 are also used to express these proteins at the surface of PEAK and/or CHO cells. Non-transfected PEAK and/or CHO cells are used as negative control. Cells are harvested, counted, checked for viability and resuspended at 3×10⁶ cells/ml in FACS buffer (PBS 2% BSA, 0.1% NaN₃). 100 μl of the cell suspension are distributed in V-bottom 96-well plates (3×10⁵ cells/well). The supernatant is removed by centrifugation 3 minutes at 4° C., 1300 rpm and the cells incubated for 15 minutes at 4° C. with increasing concentrations of the antibody according to the invention. The antibodies carrying the anti-CEACAM5 arms to test are diluted in FACS buffer and the concentration range is 30 pM-500 nM. Cells are washed twice with cold FACS buffer and re-incubated for further 15 minutes at 4° C. with a compatible anti-human IgG secondary antibody. Cells are washed twice with cold FACS buffer and resuspended in 300 μl FACS buffer with 1:1500-diluted TOPRO-3 (Invitrogen). Fluorescence is measured using a FACSCalibur™ (BD Biosciences) or a Cytoflex Platform (Beckman Coulter). Dose-response binding curves are fitted using GraphPad Prism8 software. In the same manner, CEACAM1, CEACAM6 and other CEACAMs can be characterized.
(§2) For the bispecific antibodies AB17L3-1/N, AB71L3-1/N, AB72L3-1/N, AB73L3-1/N the MFI measured for binding to CEACAM5 transfected cells was found between 29000 and 41000 (Table 2). In contrast MFI found by using PEAK cells transfected with CEACAM 1,3,4,6,8 were found below 1000 with the only exception of a strong signal for AB72L3-1/N on CEACAM8 transfected cells. When MFI values obtained on transfected cells expressing any given CEACAM are divided by the values obtained on WT PEAK cells, “factors to PEAK WT” can be calculated (Table 3). With the exception of AB72L3-1/N, the antibodies of the invention are all specific to CEACAM5, as the “factor to PEAK WT” values are all below 2.0.

[2] = target: T3, human CEACAM5 (carcinoembryonic antigen, CEA), cell surface (human, UniProt P06731 35-685); assay: as above
T3 construct: whole, on cells; also called CD66e
T3 sequence (looked up): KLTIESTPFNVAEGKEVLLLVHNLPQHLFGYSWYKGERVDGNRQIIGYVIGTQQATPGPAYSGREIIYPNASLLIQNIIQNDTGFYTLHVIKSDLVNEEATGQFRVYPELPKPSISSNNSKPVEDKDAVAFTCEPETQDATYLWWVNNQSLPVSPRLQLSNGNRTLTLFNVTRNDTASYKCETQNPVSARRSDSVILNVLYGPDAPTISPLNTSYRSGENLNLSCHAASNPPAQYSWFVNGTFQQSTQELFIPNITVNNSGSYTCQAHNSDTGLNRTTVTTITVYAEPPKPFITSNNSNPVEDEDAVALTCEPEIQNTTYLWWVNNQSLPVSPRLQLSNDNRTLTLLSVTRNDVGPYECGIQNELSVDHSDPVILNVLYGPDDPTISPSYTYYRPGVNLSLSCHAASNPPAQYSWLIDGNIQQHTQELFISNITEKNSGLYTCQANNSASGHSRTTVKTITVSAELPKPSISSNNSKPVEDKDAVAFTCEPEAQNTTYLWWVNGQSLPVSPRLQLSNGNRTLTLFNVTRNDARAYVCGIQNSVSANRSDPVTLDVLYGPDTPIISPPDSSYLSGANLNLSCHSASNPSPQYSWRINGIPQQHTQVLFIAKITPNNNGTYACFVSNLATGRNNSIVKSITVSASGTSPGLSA
Method: as §1, §2

[3] = target: T3, human CEACAM5 (carcinoembryonic …); assay: cell-based or functional assay

Row | Binder | EC50 fold change compared to no shed CEA condition, sCEA 0 µg/mL (reference) [1] | EC50 fold change compared to no shed CEA condition, sCEA 0.2 µg/mL [1] | EC50 fold change compared to no shed CEA condition, sCEA 1 µg/mL [1] | EC50 fold change compared to no shed CEA condition, sCEA 5 µg/mL [1] | Factor to PEAK WT (human CEACAM6) | Factor to PEAK WT [2] | Killing EC50, HPAFII cells (TDCC, LDH release) [3] | Killing EC50, LS174T cells (TDCC, LDH release) [3] | Killing EC50, MKN45 cells (TDCC, LDH release) [3]
1 | AB17L3-1/N (bispecific antibody, human IgG1, kappa, lambda, L234A L235A, Kappa-lambda body, lead optimization wave 1) heavy: EVQLVESGGGLVQPGGSLKLSCAASGFTFNTYAMNWVRQAPGKGLEWVGRIRSKYNNYATYYADSVKDRFTISRDDSKNTAYLQMNSLKTEDTAVYYCVRHGNFGNSYVSWFAYWGQGTLVTVSSASTKGPSVFPLAPSSKSTSGGTAALGCLVKDYFPEPVTVSWNSGALTSGVHTFPAVLQSSGLYSLSSVVTVPSSSLGTQTYICNVNHKPSNTKVDKRVEPKSCDKTHTCPPCPAPEAAGGPSVFLFPPKPKDTLMISRTPEVTCVVVDVSHEDPEVKFNWYVDGVEVHNAKTKPREEQYNSTYRVVSVLTVLHQDWLNGKEYKCKVSNKALAAPIEKTISKAKGQPREPQVYTLPPSREEMTKNQVSLTCLVKGFYPSDIAVEWESNGQPENNYKTTPPVLDSDGSFFLYSKLTVDKSRWQQGNVFSCSVMHEALHNHYTQKSLSLSPG light 1: EIVLTQSPATLSLSPGERATLSCRASQSVNSNLNWYQQKPGQAPRLLIYHGSNRATGIPARFSGSGSGTDFTLTISSLEPEDFAVYYCQQFDYFKEHNTFGQGTKVEIKRTVAAPSVFIFPPSDEQLKSGTASVVCLLNNFYPREAKVQWKVDNALQSGNSQESVTEQDSKDSTYSLSSTLTLSKADYEKHKVYACEVTHQGLSSPVTKSFNRGEC light 2: QTVVTQEPSLTVSPGGTVTLTCRSSTGAVTTSNYANWFQQKPGQAPRGLIGGTNKRAPGTPARFSGSLLGGKAALTLSGAQPEDEAEYYCALWYKQRWVFGGGTKLTVLGQPKAAPSVTLFPPSSEELQANKATLVCLISDFYPGAVTVAWKADSSPVKAGVETTTPSKQSNNKYAASSYLSLTPEQWKSHRSYSCQVTHEGSTVEKTVAPTECS | 1 fold | 3.2 fold | 5 fold | 11 fold | 1 fold | 55.1 fold | 0.16 nM | 0.25 nM | 0.11 nM
2 | AB1L3-1/N (bispecific antibody, human IgG1, kappa, lambda, L234A L235A, Kappa-lambda body: common heavy chain (hIgG1 L234A+L235A+P329A), kappa CEA light chain AB1, lambda CD3 light chain L3-1 (1A4); also called parental KL bispecific antibody) heavy: EVQLVESGGGLVQPGGSLKLSCAASGFTFNTYAMNWVRQAPGKGLEWVGRIRSKYNNYATYYADSVKDRFTISRDDSKNTAYLQMNSLKTEDTAVYYCVRHGNFGNSYVSWFAYWGQGTLVTVSSASTKGPSVFPLAPSSKSTSGGTAALGCLVKDYFPEPVTVSWNSGALTSGVHTFPAVLQSSGLYSLSSVVTVPSSSLGTQTYICNVNHKPSNTKVDKRVEPKSCDKTHTCPPCPAPEAAGGPSVFLFPPKPKDTLMISRTPEVTCVVVDVSHEDPEVKFNWYVDGVEVHNAKTKPREEQYNSTYRVVSVLTVLHQDWLNGKEYKCKVSNKALAAPIEKTISKAKGQPREPQVYTLPPSREEMTKNQVSLTCLVKGFYPSDIAVEWESNGQPENNYKTTPPVLDSDGSFFLYSKLTVDKSRWQQGNVFSCSVMHEALHNHYTQKSLSLSPG light 1: EIVLTQSPATLSLSPGERATLSCRASQSVNSNLNWYQQKPGQAPRLLIYHGSNRATGIPARFSGSGSGTDFTLTISSLEPEDFAVYYCQQFDLRHEHNTFGQGTKVEIKRTVAAPSVFIFPPSDEQLKSGTASVVCLLNNFYPREAKVQWKVDNALQSGNSQESVTEQDSKDSTYSLSSTLTLSKADYEKHKVYACEVTHQGLSSPVTKSFNRGEC light 2: QTVVTQEPSLTVSPGGTVTLTCRSSTGAVTTSNYANWFQQKPGQAPRGLIGGTNKRAPGTPARFSGSLLGGKAALTLSGAQPEDEAEYYCALWYKQRWVFGGGTKLTVLGQPKAAPSVTLFPPSSEELQANKATLVCLISDFYPGAVTVAWKADSSPVKAGVETTTPSKQSNNKYAASSYLSLTPEQWKSHRSYSCQVTHEGSTVEKTVAPTECS |  |  |  |  | 0.8 fold | 16.8 fold |  |  | 
3 | AB72L3-1/N (bispecific antibody, human IgG1, kappa, lambda, L234A L235A, Kappa-lambda body, lead optimization wave 2) heavy: EVQLVESGGGLVQPGGSLKLSCAASGFTFNTYAMNWVRQAPGKGLEWVGRIRSKYNNYATYYADSVKDRFTISRDDSKNTAYLQMNSLKTEDTAVYYCVRHGNFGNSYVSWFAYWGQGTLVTVSSASTKGPSVFPLAPSSKSTSGGTAALGCLVKDYFPEPVTVSWNSGALTSGVHTFPAVLQSSGLYSLSSVVTVPSSSLGTQTYICNVNHKPSNTKVDKRVEPKSCDKTHTCPPCPAPEAAGGPSVFLFPPKPKDTLMISRTPEVTCVVVDVSHEDPEVKFNWYVDGVEVHNAKTKPREEQYNSTYRVVSVLTVLHQDWLNGKEYKCKVSNKALAAPIEKTISKAKGQPREPQVYTLPPSREEMTKNQVSLTCLVKGFYPSDIAVEWESNGQPENNYKTTPPVLDSDGSFFLYSKLTVDKSRWQQGNVFSCSVMHEALHNHYTQKSLSLSPG light 1: EIVLTQSPATLSLSPGERATLSCRASQSVNSNLNWYQQKPGQAPRLLIYHSTNRPRGIPARFSGSGSGTDFTLTISSLEPEDFAVYYCQQFDYFKEYNTFGQGTKVEIKRTVAAPSVFIFPPSDEQLKSGTASVVCLLNNFYPREAKVQWKVDNALQSGNSQESVTEQDSKDSTYSLSSTLTLSKADYEKHKVYACEVTHQGLSSPVTKSFNRGEC light 2: QTVVTQEPSLTVSPGGTVTLTCRSSTGAVTTSNYANWFQQKPGQAPRGLIGGTNKRAPGTPARFSGSLLGGKAALTLSGAQPEDEAEYYCALWYKQRWVFGGGTKLTVLGQPKAAPSVTLFPPSSEELQANKATLVCLISDFYPGAVTVAWKADSSPVKAGVETTTPSKQSNNKYAASSYLSLTPEQWKSHRSYSCQVTHEGSTVEKTVAPTECS | 1 fold | 1.2 fold | 2.4 fold | 7.3 fold | 1.2 fold | 85.3 fold | 0.12 nM | 0.11 nM | 0.02 nM
4 | AB71L3-1/N (bispecific antibody, human IgG1, kappa, lambda, L234A L235A, Kappa-lambda body, lead optimization wave 2) heavy: EVQLVESGGGLVQPGGSLKLSCAASGFTFNTYAMNWVRQAPGKGLEWVGRIRSKYNNYATYYADSVKDRFTISRDDSKNTAYLQMNSLKTEDTAVYYCVRHGNFGNSYVSWFAYWGQGTLVTVSSASTKGPSVFPLAPSSKSTSGGTAALGCLVKDYFPEPVTVSWNSGALTSGVHTFPAVLQSSGLYSLSSVVTVPSSSLGTQTYICNVNHKPSNTKVDKRVEPKSCDKTHTCPPCPAPEAAGGPSVFLFPPKPKDTLMISRTPEVTCVVVDVSHEDPEVKFNWYVDGVEVHNAKTKPREEQYNSTYRVVSVLTVLHQDWLNGKEYKCKVSNKALAAPIEKTISKAKGQPREPQVYTLPPSREEMTKNQVSLTCLVKGFYPSDIAVEWESNGQPENNYKTTPPVLDSDGSFFLYSKLTVDKSRWQQGNVFSCSVMHEALHNHYTQKSLSLSPG light 1: EIVLTQSPATLSLSPGERATLSCRASQSVNSNLNWYQQKPGQAPRLLIYHSSNRPHGIPARFSGSGSGTDFTLTISSLEPEDFAVYYCQQFDYFKEHNTFGQGTKVEIKRTVAAPSVFIFPPSDEQLKSGTASVVCLLNNFYPREAKVQWKVDNALQSGNSQESVTEQDSKDSTYSLSSTLTLSKADYEKHKVYACEVTHQGLSSPVTKSFNRGEC light 2: QTVVTQEPSLTVSPGGTVTLTCRSSTGAVTTSNYANWFQQKPGQAPRGLIGGTNKRAPGTPARFSGSLLGGKAALTLSGAQPEDEAEYYCALWYKQRWVFGGGTKLTVLGQPKAAPSVTLFPPSSEELQANKATLVCLISDFYPGAVTVAWKADSSPVKAGVETTTPSKQSNNKYAASSYLSLTPEQWKSHRSYSCQVTHEGSTVEKTVAPTECS | 1 fold | 0.6 fold | 4.2 fold | 5.5 fold | 1 fold | 79.7 fold | 0.16 nM | 0.16 nM | 0.09 nM
